Results as given in paper PMC8640787.

Target: gastrin-releasing peptide receptor (GRPR) with a C-terminal NLuc tag (human) (UniProt P30550)
Assay: FRET or BRET

Chain of UniProt P30550 (P30550 whole entry): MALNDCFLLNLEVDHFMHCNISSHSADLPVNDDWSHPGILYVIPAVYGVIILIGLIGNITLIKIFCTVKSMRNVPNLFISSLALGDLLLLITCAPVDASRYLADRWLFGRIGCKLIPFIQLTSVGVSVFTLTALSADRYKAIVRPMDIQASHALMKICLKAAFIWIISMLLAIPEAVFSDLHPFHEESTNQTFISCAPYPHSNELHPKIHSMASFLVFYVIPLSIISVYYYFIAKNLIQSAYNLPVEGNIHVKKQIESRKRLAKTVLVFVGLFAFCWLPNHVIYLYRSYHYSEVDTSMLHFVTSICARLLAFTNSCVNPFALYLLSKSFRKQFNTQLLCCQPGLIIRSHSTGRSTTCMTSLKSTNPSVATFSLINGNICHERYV

Work on venus-mGq (engineered mini Gαq probe) yielded an efficacy of miniGq recruitment with AG-2-BBN-1 (% of AMBA) of 57%.
